Consider 91 sequences from the supplement of paper PMC9112550, “Optimization of the antimicrobial peptide Bac7 by deep mutational scanning” (BMC Biology, 2022).

In this data set the test system is Escherichia coli TOP10. Briefly: shrunken log2 fold change of peptide-encoding DNA abundance (4.5 h post-induction vs induction); higher = less antimicrobial activity (less host growth inhibition). The note with it: time post-induction: 4.5 h; library: site-saturation at positions 5, 18, 19, 20.
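Further: peptides expressed intracellularly from a pBAD plasmid library in pooled LB shake-flask culture, induced with 0.3% L-arabinose, DNA abundance read by NGS, three biological replicates, DESeq2 with apeglm shrinkage.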

Take RRIRYRPPRLPRPRPRPHQSPRP: the “shrunken log2 fold change” value was 0.0552. With RRIRPRPPRLPRPRPRPKYHPRP the figure was -0.317; with RRIRSRPPRLPRPRPRPFRKPRP, -0.176; with RRIRWRPPRLPRPRPRPPQDPRP, 0.267.

Take RRIRVRPPRLPRPRPRPAQVPRP: the “shrunken log2 fold change” value turned out to be 0.427. Turning to RRIRLRPPRLPRPRPRPYGEPRP, the “shrunken log2 fold change” value is -0.0013. With RRIRERPPRLPRPRPRPKGPPRP the figure was 0.0237. In the case of RRIRMRPPRLPRPRPRPSAPPRP, the “shrunken log2 fold change” value stood at 0.51.

Turning to RRIRWRPPRLPRPRPRPICGPRP, the “shrunken log2 fold change” value is 0.0975. For the sequence RRIRPRPPRLPRPRPRPDWAPRP, the “shrunken log2 fold change” value is 0.0079.

Take RRIRFRPPRLPRPRPRPEHVPRP: the “shrunken log2 fold change” value is -0.0205. With RRIRSRPPRLPRPRPRPTLHPRP the figure was 0.147; with RRIRWRPPRLPRPRPRPEKSPRP, 0.486.

As to RRIRTRPPRLPRPRPRPYDLPRP, the “shrunken log2 fold change” value is -0.14. With RRIRFRPPRLPRPRPRPGMHPRP the figure was -0.24; with RRIRHRPPRLPRPRPRPCHFPRP, -0.0384. With RRIRLRPPRLPRPRPRPFFCPRP, the “shrunken log2 fold change” value was -0.0304. In the case of RRIRARPPRLPRPRPRPLPRPRP, the “shrunken log2 fold change” value turned out to be 0.768. With RRIRLRPPRLPRPRPRPCFRPRP the figure was 0.0965; with RRIRIRPPRLPRPRPRPKDSPRP, -0.273; with RRIRSRPPRLPRPRPRPYHWPRP, -0.479. With RRIRTRPPRLPRPRPRPEMYPRP the figure was -0.012. Take RRIRKRPPRLPRPRPRPYFMPRP: the “shrunken log2 fold change” value is -0.501.

For RRIRWRPPRLPRPRPRPMFCPRP, the “shrunken log2 fold change” value is -0.0733. With RRIRPRPPRLPRPRPRPSYHPRP the figure was -0.641; with RRIRSRPPRLPRPRPRPQIEPRP, 0.0319; with RRIRLRPPRLPRPRPRPVKPPRP, 0.0377.

With RRIRLRPPRLPRPRPRPTQGPRP, the “shrunken log2 fold change” value was found to be 0.852. RRIRRRPPRLPRPRPRPVNMPRP: the “shrunken log2 fold change” value is -0.156. As to RRIRHRPPRLPRPRPRPCWDPRP, the “shrunken log2 fold change” value is 0.0881.

Turning to RRIRLRPPRLPRPRPRPQHIPRP, the “shrunken log2 fold change” value is -0.812. With RRIRQRPPRLPRPRPRPAILPRP the figure was 0.312.

In the case of RRIRWRPPRLPRPRPRPQDQPRP, the “shrunken log2 fold change” value is 0.0586.

On to RRIRWRPPRLPRPRPRPSMAPRP, for which the “shrunken log2 fold change” value turned out to be 0.266.

As to RRIRGRPPRLPRPRPRPARFPRP, the “shrunken log2 fold change” value was determined as 0.683.

Take RRIRMRPPRLPRPRPRPCKFPRP: the “shrunken log2 fold change” value came to 0.12. On to RRIRCRPPRLPRPRPRPICTPRP, for which the “shrunken log2 fold change” value was -0.307. As for RRIRGRPPRLPRPRPRPNACPRP, the “shrunken log2 fold change” value worked out at 0.212. Take RRIRIRPPRLPRPRPRPVGLPRP: the “shrunken log2 fold change” value was -0.0289. RRIRIRPPRLPRPRPRPMACPRP: the “shrunken log2 fold change” value was -0.321. As for RRIRWRPPRLPRPRPRPPDKPRP, the “shrunken log2 fold change” value turned out to be 0.423. Take RRIRNRPPRLPRPRPRPFSQPRP: the “shrunken log2 fold change” value was -0.021.

Regarding RRIRDRPPRLPRPRPRPEDYPRP, the “shrunken log2 fold change” value was found to be 0.0219. For RRIRPRPPRLPRPRPRPQSIPRP, the “shrunken log2 fold change” value was -0.105. With RRIRMRPPRLPRPRPRPRDTPRP the figure was 0.964. With RRIRFRPPRLPRPRPRPGSSPRP the figure was -0.0565; with RRIRDRPPRLPRPRPRPWWRPRP, 0.116; with RRIRLRPPRLPRPRPRPWPKPRP, -0.0141. With RRIRKRPPRLPRPRPRPDAYPRP the figure was 1.82; with RRIRCRPPRLPRPRPRPCPKPRP, -0.0654; with RRIRHRPPRLPRPRPRPSQCPRP, -0.325. For the sequence RRIRNRPPRLPRPRPRPPQQPRP, the “shrunken log2 fold change” value was determined as 0.294.

Turning to RRIRTRPPRLPRPRPRPVTAPRP, the “shrunken log2 fold change” value was -0.0612.

As to RRIRCRPPRLPRPRPRPVIPPRP, the “shrunken log2 fold change” value is -0.392. With RRIRYRPPRLPRPRPRPKQDPRP the figure was -0.488; with RRIRNRPPRLPRPRPRPNVRPRP, -0.243; with RRIRLRPPRLPRPRPRPDCFPRP, 0.19. With RRIRTRPPRLPRPRPRPIKEPRP the figure was -0.253; with RRIRWRPPRLPRPRPRPQHIPRP, -0.736. For the sequence RRIRCRPPRLPRPRPRPCVCPRP, the “shrunken log2 fold change” value was -0.128. With RRIRDRPPRLPRPRPRPRVIPRP the figure was -0.305; with RRIRPRPPRLPRPRPRPGQIPRP, -0.0497. With RRIRPRPPRLPRPRPRPWLGPRP the figure was 0.256. As to RRIRTRPPRLPRPRPRPPLHPRP, the “shrunken log2 fold change” value amounted to 0.0532. As to RRIRPRPPRLPRPRPRPLQFPRP, the “shrunken log2 fold change” value was -0.178. With RRIRQRPPRLPRPRPRPEYAPRP the figure was -0.042; with RRIRARPPRLPRPRPRPSIQPRP, -0.119; with RRIRARPPRLPRPRPRPLLLPRP, 0.313.

As to RRIRFRPPRLPRPRPRPFKYPRP, the “shrunken log2 fold change” value was -1.26.

Regarding RRIRMRPPRLPRPRPRPSEAPRP, the “shrunken log2 fold change” value came to 1.95. With RRIRIRPPRLPRPRPRPRYTPRP the figure was -0.156; with RRIRERPPRLPRPRPRPFGAPRP, 0.143. With RRIRPRPPRLPRPRPRPYYLPRP the figure was -0.745. With RRIRNRPPRLPRPRPRPTFEPRP the figure was -0.0715; with RRIRLRPPRLPRPRPRPLALPRP, -0.438; with RRIRHRPPRLPRPRPRPDITPRP, -0.212. As to RRIRLRPPRLPRPRPRPSEEPRP, the “shrunken log2 fold change” value was -0.0637. Take RRIRARPPRLPRPRPRPVPTPRP: the “shrunken log2 fold change” value turned out to be 0.57. With RRIRNRPPRLPRPRPRPWAPPRP the figure was -0.23; with RRIRHRPPRLPRPRPRPCPWPRP, -0.168. With RRIRDRPPRLPRPRPRPYEPPRP, the “shrunken log2 fold change” value is -0.017. With RRIRERPPRLPRPRPRPRCKPRP the figure was -0.0657. As to RRIRCRPPRLPRPRPRPTESPRP, the “shrunken log2 fold change” value stood at 0.101. RRIRERPPRLPRPRPRPKYLPRP: the “shrunken log2 fold change” value is -0.77. With RRIRVRPPRLPRPRPRPTMSPRP the figure was -0.194; with RRIRGRPPRLPRPRPRPTYTPRP, 0.249. With RRIRVRPPRLPRPRPRPGMGPRP the figure was 0.0724; with RRIRTRPPRLPRPRPRPKEIPRP, -1.03; with RRIRDRPPRLPRPRPRPENMPRP, 0.0225. In the case of RRIRPRPPRLPRPRPRPSSPPRP, the “shrunken log2 fold change” value was -0.406. Take RRIRHRPPRLPRPRPRPMLDPRP: the “shrunken log2 fold change” value is 0.0917.
